From paper PMC12416549 (2024)
Positions count from the first letter of the chain named. Names and notes keep the numbering of the source.

T1: TNFR1 (Homo sapiens, UniProt P19438)
T1 chain: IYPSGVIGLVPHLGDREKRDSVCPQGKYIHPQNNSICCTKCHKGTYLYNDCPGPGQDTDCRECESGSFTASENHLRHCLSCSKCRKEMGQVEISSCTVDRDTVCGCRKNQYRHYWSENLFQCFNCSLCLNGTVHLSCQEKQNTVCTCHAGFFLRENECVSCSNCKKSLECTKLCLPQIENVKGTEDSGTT

B1: E81A (designed binder)
chain: MTLQELLREEALRRAEAEAFRYALELLAEKFPEQKEYLLDLAEEIESQIRSLSGVDVEDVRKFLDKEWAWVKELLAEHPAALAEVEAARAARLAELRAEVEAKVAA
B2: Y22Q (designed binder)
chain: B1 chain with Y22Q, A81E
B3: L64S (designed binder)
chain: B1 chain with L64S, A81E
B4: E73L (designed binder)
chain: B1 chain with E73L, A81E
B5: S47W (designed binder)
chain: B1 chain with S47W, A81E
B6: E77S (designed binder)
chain: B1 chain with E77S, A81E
B7: S51Y (designed binder)
chain: B1 chain with S51Y, A81E
B8: E84Q (designed binder)
chain: B1 chain with A81E, E84Q
B9: A83D (designed binder)
chain: B1 chain with A81E, A83D
B10: P32F (designed binder)
chain: B1 chain with P32F, A81E
B11: V104C (designed binder)
chain: B1 chain with A81E, V104C
B12: L24Y (designed binder)
chain: B1 chain with L24Y, A81E
B13: A91W (designed binder)
chain: B1 chain with A81E, A91W
B14: F31K (designed binder)
chain: B1 chain with F31K, A81E
B15: I49V (designed binder)
chain: B1 chain with I49V, A81E
B16: L82M (designed binder)
chain: B1 chain with A81E, L82M
B17: L39I (designed binder)
chain: B1 chain with L39I, A81E
B18: E9A (designed binder)
chain: B1 chain with E9A, A81E
B19: A15C (designed binder)
chain: B1 chain with A15C, A81E
B20: E95H (designed binder)
chain: B1 chain with A81E, E95H
B21: A19R (designed binder)
chain: B1 chain with A19R, A81E
B22: E44C (designed binder)
chain: B1 chain with E44C, A81E
B23: A17N (designed binder)
chain: B1 chain with A17N, A81E
B24: K35D (designed binder)
chain: B1 chain with K35D, A81E
B25: A98D (designed binder)
chain: B1 chain with A81E, A98D
B26: R14A (designed binder)
chain: B1 chain with R14A, A81E
B27: R14D (designed binder)
chain: B1 chain with R14D, A81E
B28: E67L (designed binder)
chain: B1 chain with E67L, A81E
B29: A94N (designed binder)
chain: B1 chain with A81E, A94N
B30: W70Q (designed binder)
chain: B1 chain with W70Q, A81E
B31: K72Q (designed binder)
chain: B1 chain with K72Q, A81E
B32: A28F (designed binder)
chain: B1 chain with A28F, A81E
B33: L3Y (designed binder)
chain: B1 chain with L3Y, A81E
B34: W70N (designed binder)
chain: B1 chain with W70N, A81E
B35: E58P (designed binder)
chain: B1 chain with E58P, A81E
B36: E43C (designed binder)
chain: B1 chain with E43C, A81E
B37: L93S (designed binder)
chain: B1 chain with A81E, L93S
B38: E67Y (designed binder)
chain: B1 chain with E67Y, A81E
B39: R8L (designed binder)
chain: B1 chain with R8L, A81E
B40: R89T (designed binder)
chain: B1 chain with A81E, R89T
B41: R13W (designed binder)
chain: B1 chain with R13W, A81E
B42: A23Q (designed binder)
chain: B1 chain with A23Q, A81E
B43: Q34A (designed binder)
chain: B1 chain with Q34A, A81E

Biological target: T1, TNFR1
Assay: yeast display SC50

Binder | apparent Kd (screen) [nM]
B1 | 0.718
B2 | 0.49
B3 | 24.4
B4 | 0.653
B5 | 0.277
B6 | 1.05
B7 | 0.252
B8 | 0.869
B9 | 0.49
B10 | 0.653
B11 | 0.49
B12 | 0.539
B13 | 0.718
B14 | 1.16
B15 | 2.05
B16 | 0.49
B17 | 0.653
B18 | 1.4
B19 | 0.539
B20 | 0.653
B21 | 3.99
B22 | 20.2

Binder | apparent Kd (screen) [nM]
B23 | 0.593
B24 | 1.27
B25 | 0.718
B26 | 0.49
B27 | 0.335
B28 | 10.4
B29 | 0.653
B30 | 15.2
B31 | 0.539
B32 | 12.5
B33 | 0.593
B34 | 18.3
B35 | 0.718
B36 | 0.405
B37 | 1.05
B38 | 3.63
B39 | 0.869
B40 | 0.446
B41 | 0.252
B42 | 0.539
B43 | 0.593
